From patent US20230129812A1 (ACCELERON PHARMA, published 2023)
Each block holds one binder with its values, some of them ahead of it.

B7: BMP10 (ligand, UniProt O95393 317-424, looked up)
chain: NAKGNYCKRTPLYIDFKEIGWDSWIIAPPGYEAYECRGVCNYPLAEHLTPTKHAIIQALVHLKNSQKASKACCVPTKLEPISILYLDKGVVTYKFKYEGMAVSECGCR
B8: GDF11 (ligand, UniProt O95390 299-407, looked up)
chain: NLGLDCDEHSSESRCCRYPLTVDFEAFGWDWIIAPKRYKANYCSGQCEYMFMQKYPHTHLVQQANPRGSAGPCCTPTKMSPINMLYFNDKQQIIYGKIPGMVVDRCGCS
notes: also called BMP11

Legend:
GDF11 [1] = molecular target: B8; test: SPR (Biacore); ligand coupled, receptor flowed over (as reported in WO2006/012627)
Excerpt: (§1) Other variants have been generated and tested, as reported in WO2006/012627 (incorporated herein by reference in its entirety). See, e.g., pp. 59-60, using ligands coupled to the device and flowing receptor over the coupled ligands. […] Table 11 showing data with respect to these variants is reproduced below: […]

activin A [2] = molecular target: T1, activin A (UniProt P08476 311-426); test: SPR (Biacore); ligand coupled, receptor flowed over (as reported in WO2006/012627); - means ~1/2 WT binding
T1 construct: also called ActA
T1 sequence (looked up): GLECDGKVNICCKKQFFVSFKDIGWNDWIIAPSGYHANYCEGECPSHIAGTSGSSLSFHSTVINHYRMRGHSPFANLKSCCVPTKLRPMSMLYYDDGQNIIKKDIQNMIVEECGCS
Excerpt: as §1

GDF11 [3] = molecular target: B8; test: as above
Excerpt: as §1

activin A [4] = molecular target: T1, activin A; test: SPR (Biacore); ligand coupled, receptor flowed over (as reported in WO2006/012627); + means WT
Excerpt: as §1

BMP9 = molecular target: T2, BMP9 (UniProt Q9UK05 320-429); test: SPR (Biacore); receptor-Fc captured by anti-Fc antibody, ligand injected
T2 construct: also called GDF2
T2 sequence (looked up): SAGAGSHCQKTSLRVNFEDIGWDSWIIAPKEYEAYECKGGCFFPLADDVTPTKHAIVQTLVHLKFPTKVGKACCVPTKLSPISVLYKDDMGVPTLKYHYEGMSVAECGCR
Procedure: (§2) A Biacore™-based binding assay was used to compare ligand binding selectivity of the ALK4-Fc:ActRIIB-Fc heterodimeric complex described above with that of ActRIIB-Fc and ALK4-Fc homodimer complexes. The ALK4-Fc:ActRIeB-Fc heterodimer, […], and ALK4-Fc homodimer were independently captured onto the system using an anti-Fc antibody. Ligands were injected and allowed to flow over the captured receptor protein. Results are summarized in Table 13 below, in which ligand off-rates (kd) most indicative of effective polypeptides are denoted in bold.

GDF8 [5] = molecular target: T3, GDF8 (UniProt O14793 267-375); test: as above
T3 construct: also called myostatin
T3 sequence (looked up): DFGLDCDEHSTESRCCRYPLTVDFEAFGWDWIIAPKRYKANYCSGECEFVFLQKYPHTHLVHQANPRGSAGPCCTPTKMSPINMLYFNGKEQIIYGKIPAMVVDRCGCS
Procedure: as §2

GDF3 = molecular target: T4, GDF3 (UniProt Q9NR23 251-364); test: as above
T4 construct: also called VGR2
T4 sequence (looked up): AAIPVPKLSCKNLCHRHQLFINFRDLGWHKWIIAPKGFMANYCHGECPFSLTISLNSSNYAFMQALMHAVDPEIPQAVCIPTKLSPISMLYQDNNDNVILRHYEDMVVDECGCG
Procedure: as §2

BMP6 [6] = molecular target: T5, BMP6 (UniProt P22004 375-513, limits assumed); test: as above
T5 sequence (looked up): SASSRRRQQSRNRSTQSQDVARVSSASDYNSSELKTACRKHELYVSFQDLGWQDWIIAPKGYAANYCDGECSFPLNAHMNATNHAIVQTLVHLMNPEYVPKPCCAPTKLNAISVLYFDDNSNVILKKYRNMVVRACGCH
Procedure: as §2

activin B = molecular target: T6, activin B (UniProt P09529 293-407); test: as above
T6 sequence (looked up): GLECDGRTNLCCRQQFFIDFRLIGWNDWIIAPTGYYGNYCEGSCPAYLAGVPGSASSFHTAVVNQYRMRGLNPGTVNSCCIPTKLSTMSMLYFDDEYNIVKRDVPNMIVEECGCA
Procedure: as §2

activin A [7] = molecular target: T1, activin A; test: as above
Procedure: as §2

BMP10 [8] = molecular target: B7; test: as above
Procedure: as §2

GDF11 [9] = molecular target: B8; test: as above
Procedure: as §2

ActRIIA-mFc [10] = molecular target: T7, ActRIIA-mFc (human, UniProt P27037 21-135); test: SPR (Biacore), similar binding assay
T7 construct: not shown: minimal linker and mouse Fc domain
Procedure: GDF11 or activin A were immobilized on a Biacore™ CM5 chip using standard amine-coupling procedure. ActRIIA-hFc and ActRIIA-mFc proteins were loaded onto the system, and binding was measured. […] Using a similar binding assay, ActRIIA-hFc was determined to have high to moderate affinity for other TGF-beta superfamily ligands including, for example, activin B, GDF8, BMP6, and BMP10. ActRIIA-mFc behaved similarly.

[11] = molecular target: T8, Soluble ActRIIB-Fc +15tail (Homo sapiens (Human), UniProt Q13705 19-134); test: SPR (Biacore); ligand coupled, receptor flowed over (as reported in WO2006/012627)
T8 construct: not shown: linker and Fc
T8 sequence (looked up): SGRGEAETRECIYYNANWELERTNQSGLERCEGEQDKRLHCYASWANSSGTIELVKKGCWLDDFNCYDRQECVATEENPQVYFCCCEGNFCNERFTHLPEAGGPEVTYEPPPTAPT
Excerpt: as §1

ActRIIA-mFc [12] = molecular target: T7, ActRIIA-mFc; test: SPR (Biacore); ligand amine-coupled to CM5 chip, receptor-Fc injected
GDF8 [13] = molecular target: T3, GDF8; test: SPR (Biacore)
BMP6 [14] = molecular target: T5, BMP6; test: SPR (Biacore)
BMP10 [15] = molecular target: B7; test: SPR (Biacore)

T7 sequence (P27037 21-135): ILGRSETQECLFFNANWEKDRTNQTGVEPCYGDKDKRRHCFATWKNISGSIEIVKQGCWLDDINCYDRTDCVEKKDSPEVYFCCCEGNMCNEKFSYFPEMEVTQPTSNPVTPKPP

B3: Soluble ActRIIB-Fc L79A (Table 11) (Fc fusion, UniProt Q13705 19-119, looked up, not shown: a dimerising Fc or GST)
chain: SGRGEAETRECIYYNANWELERTNQSGLERCEGEQDKRLHCYASWANSSGTIELVKKGCWADDFNCYDRQECVATEENPQVYFCCCEGNFCNERFTHLPEA
binding result (GDF11 [1]): no binding | binding result (activin A [4]): binds

B6: ALK4-Fc:ActRIIB-Fc heterodimer (Fc fusion)
chain 1: GRGEAETRECIYYNANWELERTNQSGLERCEGEQDKRLHCYASWRNSSGTIELVKKGCWLDDFNCYDRQECVATEENPQVYFCCCEGNFCNERFTHLPEAGGPEVTYEPPPTAPTGGGTHTCPPCPAPELLGGPSVFLFPPKPKDTLMISRTPEVTCVVVDVSHEDPEVKFNWYVDGVEVHNAKTKPREEQYNSTYRVVSVLTVLHQDWLNGKEYKCKVSNKALPAPIEKTISKAKGQPREPQVYTLPPSRKEMTKNQVSLTCLVKGFYPSDIAVEWESNGQPENNYKTTPPVLKSDGSFFLYSKLTVDKSRWQQGNVFSCSVMHEALHNHYTQKSLSLSPGK
chain 2: SGPRGVQALLCACTSCLQANYTCETDGACMVSIFNLDGMEHHVRTCIPKVELVPAGKPFYCLSSEDLRNTHCCYTDYCNRIDLRVPSGHLKEPEHPSMWGPVETGGGTHTCPPCPAPELLGGPSVFLFPPKPKDTLMISRTPEVTCVVVDVSHEDPEVKFNWYVDGVEVHNAKTKPREEQYNSTYRVVSVLTVLHQDWLNGKEYKCKVSNKALPAPIEKTISKAKGQPREPQVYTLPPSREEMTKNQVSLTCLVKGFYPSDIAVEWESNGQPENNYDTTPPVLDSDGSFFLYSDLTVDKSRWQQGNVFSCSVMHEALHNHYTQKSLSLSPG
notes: The receptor parts are the same in all three; also called ALK4-Fc:ActRIIB-Fc heterodimeric complex; ALK4:ActRIIB heterodimer
Kd (BMP9): 3400 pM | Kd (GDF8 [5]): 550 pM | koff (GDF8 [5]): 0.00021 s⁻¹ | kon (GDF8 [5]): 390000 M⁻¹ s⁻¹ | Kd (GDF3): 4900 pM | koff (GDF3): 0.017 s⁻¹ | kon (GDF3): 3.4e+06 M⁻¹ s⁻¹ | Kd (BMP6 [6]): 2700 pM | koff (BMP6 [6]): 0.0055 s⁻¹ | kon (BMP6 [6]): 2e+06 M⁻¹ s⁻¹ | Kd (activin B): 6 pM | koff (activin B): 4e-05 s⁻¹ | kon (activin B): 7.1e+06 M⁻¹ s⁻¹ | Kd (activin A [7]): 12 pM | koff (activin A [7]): 0.00015 s⁻¹ | kon (activin A [7]): 1.3e+07 M⁻¹ s⁻¹ | Kd (BMP10 [8]): 74 pM | koff (BMP10 [8]): 0.0041 s⁻¹ | kon (BMP10 [8]): 5.6e+07 M⁻¹ s⁻¹ | Kd (GDF11 [9]): 3 pM | koff (GDF11 [9]): 0.00011 s⁻¹ | kon (GDF11 [9]): 3.8e+07 M⁻¹ s⁻¹

Binder: B7
binding result (ActRIIA-mFc [10]): binds

Binder: B8
Kd [11]: 19000 pM | binding result (ActRIIA-mFc [12]): binds

Next, values leading:

binding result (GDF11 [1]): no binding | binding result (activin A [2]): binds
B1: Soluble ActRIIB-Fc D54A (Table 11) (Fc fusion, UniProt Q13705 19-119, looked up, not shown: a dimerising Fc or GST)
chain: SGRGEAETRECIYYNANWELERTNQSGLERCEGEQAKRLHCYASWANSSGTIELVKKGCWLDDFNCYDRQECVATEENPQVYFCCCEGNFCNERFTHLPEA

binding result (GDF11 [3]): binds
B2: Soluble ActRIIB-Fc F82A (Table 11) (Fc fusion, UniProt Q13705 19-119, looked up, not shown: a dimerising Fc or GST)
chain: SGRGEAETRECIYYNANWELERTNQSGLERCEGEQDKRLHCYASWANSSGTIELVKKGCWLDDANCYDRQECVATEENPQVYFCCCEGNFCNERFTHLPEA

binding result (activin A [2]): binds | binding result (GDF11 [3]): binds
B4: Soluble ActRIIB-Fc R40A (Table 11) (Fc fusion, UniProt Q13705 19-119, looked up, not shown: a dimerising Fc or GST)
chain: SGRGEAETRECIYYNANWELEATNQSGLERCEGEQDKRLHCYASWANSSGTIELVKKGCWLDDFNCYDRQECVATEENPQVYFCCCEGNFCNERFTHLPEA

Kd (BMP9): 77 pM | koff (BMP9): 0.0011 s⁻¹ | kon (BMP9): 1.4e+07 M⁻¹ s⁻¹ | Kd (GDF8 [5]): 280 pM | koff (GDF8 [5]): 0.00023 s⁻¹ | kon (GDF8 [5]): 830000 M⁻¹ s⁻¹ | Kd (GDF3): 1500 pM | koff (GDF3): 0.0022 s⁻¹ | kon (GDF3): 1.4e+06 M⁻¹ s⁻¹ | Kd (BMP6 [6]): 190 pM | koff (BMP6 [6]): 0.0068 s⁻¹ | kon (BMP6 [6]): 3.2e+07 M⁻¹ s⁻¹ | Kd (activin B): 20 pM | koff (activin B): 0.0001 s⁻¹ | kon (activin B): 5.1e+06 M⁻¹ s⁻¹ | Kd (activin A [7]): 19 pM | koff (activin A [7]): 0.00023 s⁻¹ | kon (activin A [7]): 1.2e+07 M⁻¹ s⁻¹ | Kd (BMP10 [8]): 11 pM | koff (BMP10 [8]): 0.00026 s⁻¹ | kon (BMP10 [8]): 2.3e+07 M⁻¹ s⁻¹ | Kd (GDF11 [9]): 2 pM | koff (GDF11 [9]): 0.00011 s⁻¹ | kon (GDF11 [9]): 5e+07 M⁻¹ s⁻¹
B5: ActRIIB-Fc homodimer (Fc fusion)
chain: GRGEAETRECIYYNANWELERTNQSGLERCEGEQDKRLHCYASWRNSSGTIELVKKGCWLDDFNCYDRQECVATEENPQVYFCCCEGNFCNERFTHLPEAGGPEVTYEPPPTAPTGGGTHTCPPCPAPELLGGPSVFLFPPKPKDTLMISRTPEVTCVVVDVSHEDPEVKFNWYVDGVEVHNAKTKPREEQYNSTYRVVSVLTVLHQDWLNGKEYKCKVSNKALPVPIEKTISKAKGQPREPQVYTLPPSREEMTKNQVSLTCLVKGFYPSDIAVEWESNGQPENNYKTTPPVLDSDGSFFLYSKLTVDKSRWQQGNVFSCSVMHEALHNHYTQKSLSLSPGK
notes: also called ActRIIB-Fc:ActRIIB-Fc homodimer

binding result (GDF8 [13]): binds | binding result (BMP6 [14]): binds | binding result (BMP10 [15]): binds
B9: ActRIIB(L79D 25-131)-hFc (Fc fusion)
chain: ETRECIYYNANWELERTNQSGLERCEGEQDKRLHCYASWRNSSGTIELVKKGCWDDDFNCYDRQECVATEENPQVYFCCCEGNFCNERFTHLPEAGGPEVTYEPPPTGGGTHTCPPCPAPELLGGPSVFLFPPKPKDTLMISRTPRVTCVVVDVSHEDPEVKFNWYVDGVEVHNAKTKPREEQYNSTYRVVSVLTVLHQDWLNGKEYKCKVSNKALPAPIEKTISKAKGQPREPQVYTLPPSREEMTKNQVSLTCLVKGFYPSDIAVEWESNGQPENNYKTTPPVLDSDGSFFLYSKLTVDKSRWQQGNVFSCSVMHEALHNHYTQKSLSLSPGK
